{"source": "patent US10808024B2", "about": "“Antibodies against immunocomplexes comprising cyanobacterial cyclic peptide hepatotoxins” (priority 2015, dated 2020)", "key": {"[1]": {"assay": "BioLayer Interferometry (Octet), pre-incubation with free toxin", "type": "binding", "conditions": "pre-incubated with 500 μg/L MC-LR", "method": "(§1) Binding of SA51D1 was explored using Octet RED384 instrument (Pall ForteBio). Three measurements (A, B and C) were performed in duplicates using tilted-bottom 384-well microplates (ForteBio) with 1000 rpm agitation at 30° C. Colorless Assay Buffer (Kaivogen) [0.05 M Tris-HCl, pH 7.75, 0.9% (w/v) NaCl, 0.05% (w/v) NaN3, 0.01% (v/v) Tween 40, 0.05% (w/v) bovine-γ-globulin, 20 μM diethylenetriaminepentaacetate (DTPA), and 0.5% (w/v) bovine serum albumin (BSA)] was used.\n(§2) Biotinylated ADDA Mab AD4G2 (1 μg/ml) was immobilized on Streptavidin biosensor (Dip and Read SA Biosensors, ForteBio) for 200 sec. In order to form IC, another loading was performed with MC-LR (1 μg/ml) for 200 sec. In blank measurement (C) only buffer was used instead of MC-LR. All sensors were incubated in buffer for 60 sec."}, "[2]": {"test_system": "immunocomplexes of CCPH variants and anti-Adda mAb", "assay": "Screening and cross-reactivity studies of anti-IC scFv-AP binders, specificity class", "type": "binding"}, "[3]": {"test_system": "complex of biotinylated anti-Adda Mab and MC-LR", "assay": "TR-IFMA signal with MC-LR", "type": "binding", "conditions": "10 μg/l MC-LR", "method": "(§3) By way of example, the specificity of SA51D1 to the immune complex was also seen in our immunoassay, where streptavidin-coated 96-well microtiter wells were used to capture a complex formed by biotinylated anti-Adda Mab, CCPH, SA51D1 antibody fused to alkaline phosphatase and this complex was detected with europium-labelled anti-alkaline phosphatase Pab. […] With 10 μg/l level of MC-LR the fluorescence signal was 789966 counts."}, "[4]": {"test_system": "anti-Adda mAb without MC-LR", "assay": "BioLayer Interferometry (Octet), binding to naked primary antibody", "conditions": "SA51D1 1 μg/ml; no MC-LR", "method": "as §1, §2"}, "[5]": {"test_system": "immunocomplex of CCPH variant and biotinylated anti-Adda mAb", "assay": "Quantitative lateral flow test with streptavidin up-converting nanoparticles", "type": "binding", "conditions": "each CCPH at 1 μg/l"}, "[6]": {"test_system": "biotinylated anti-Adda Mab, no CCPH", "assay": "TR-IFMA background signal without CCPH", "type": "binding", "method": "as §3"}, "[7]": {"test_system": "immunocomplex formed by anti-Adda Mab and MC-LR", "assay": "BioLayer Interferometry (Octet), binding to immunocomplex", "conditions": "SA51D1 1 μg/ml", "method": "as §1, §2"}}, "note": "Entries after “also recorded” stand apart in the source; their conditions may differ.", "data": [{"molecule": "SA51D1: group-specific (generic) anti-immunocomplex scFv from synthetic phage display library (antibody, V domains shown, Clone SA51D1; DOMAIN (31)..(35) CDR1; DOMAIN (50)..(66) CDR2; DOMAIN (99)..(110) CDR3; DOMAIN (24)..(35) CDR1; DOMAIN (51)..(57) CDR2; DOMAIN (90)..(98) CDR3) VH: EVQLLESGGGLVQPGGSLRLSCAASGFTFSNYSMHWVRQAPGKGLEWVSEITPYDGNTDYADSVKGRFTISRDNSKNTLYLQMNSLRAEDTAVYYCAREWWSSNWIYLDYWGQGTLVTVSS VL: EIVLTQSPGTLSLSPGERATLSCRASQSVSSSNLAWYQQKPGQAPRLLIYGASSRATGVPDRFSGSGSGTDFTLTISRLEPEDFAVYYCQQMHSTPWTFGQGTKVEIKRT", "values": [{"measurement": "Affinity towards free MC-LR", "setting": "[1]", "value": "does not have affinity; also recorded: no affinity"}, {"measurement": "Specificity of anti-IC antibody (CCPH immunocomplexes recognized)", "setting": "[2]", "value": "group-specific; also recorded: broad-specific"}, {"measurement": "Fluorescence signal", "setting": "[3]", "value": 789966, "unit": "counts"}, {"measurement": "Binding to anti-Adda mAb alone", "setting": "[4]", "value": "no interaction; also recorded: neglegtable binding"}, {"measurement": "Recognition of nine CCPH variants in lateral flow test", "setting": "[5]", "value": "recognizes all CCPH variants tested"}, {"measurement": "Background fluorescence signal level", "setting": "[6]", "value": 404, "unit": "counts"}, {"measurement": "Binding to immunocomplex", "setting": "[7]", "value": "binds specifically"}]}]}
